Laboratory results published in IntAct's records for PubMed 10887173.

B1: 14-3-3 protein zeta/delta (Homo sapiens), P63104 (parent)
chain: MDKNELVQKAKLAEQAERYDDMAACMKSVTEQGAELSNEERNLLSVAYKNVVGARRSSWRVVSSIEQKTEGAEKKQQMAREYREKIETELRDICNDVLSLLEKFLIPNASQAESKVFYLKMKGDYYRYLAEVAAGDDKKGIVDQSQQAYQEAFEISKKEMQPTHPIRLGLALNFSVFYYEILNSPEKACSLAKTAFDEAIAELDTLSEESYKDSTLIMQLLRDNLTLWTSDTQGDEAEAGEGGEN

Variants of: B1
Settings: with vime_chlae VIM

Variant	effect of a mutation on the interaction
MDKNKLVQKAKQQRQAERYDDMAACMKSVTEQGAELSNEERNLLSVAYKNVVGARRSSWRVVSSIEQKTEGAEKKQQMAREQRENIQTELRDICNDVLSLLEKFLIPNASQAESKVFYLKMKGDYYRYLAEVAAGDDKKGIVDQSQQAYQEAFEISKKEMQPTHPIRLGLALNFSVFYYEILNSPEKACSLAKTAFDEAIAELDTLSEESYKDSTLIMQLLRDNLTLWTSDTQGDEAEAGEGGEN [E5K;L12Q;A13Q;E14R;Y82Q;K85N;E87Q]	decreasing interaction
